The nanobody polyreactivity screen of Harvey et al. (2022)

Experiment: yeast display, Sf9 membrane polyspecificity reagent, FACS + sequencing; frameworks hold sequencing errors
Outline: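 Sorting gates, low and high (top ~1%), were placed on anti-HA fluorescence to track expression and on streptavidin fluorescence to track reagent binding. A clone's polyreactivity label is taken from the gate it came out of. The reagent was 10% biotinylated, detergent-solubilized Sf9 membrane, applied for 1 hour at 4 °C to galactose-induced yeast display cells.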

QVQLVESGGGLVQAGGSLRLSCAASGRTFGYYGMGWYRQAPGKERELVASINFSSGSTFYADSVKGRFTISRDNAKNTVYLQMNSLKPEDTAVYYCAARAKAVRSYAYNYWGQGTQVTVSS
polyreactivity (PSR sort gate): low polyreactivity

QVQLVESGGGLVQAGGSLRLSCSASGSISYYNAMAWYRQAPGKERELVASITRRGGTTNYAESVKGRFSISRDNAKHTVYLQMNSLKPEDTAVYNCNAEYPYWTPDYNYRFDYWGQGTQVTVSS
polyreactivity (PSR sort gate): high polyreactivity

QVQLVESGGGLVQAGGSLRLSCAASGSIFLGYAMGWYRQAPGKERELVADIDWRDGSTYYADSVKGRFTISRDNAKTTVYLQMNSLKPEDTAVYYCAVYDNLQWDFGIYYEYDYWGQGTQVTVSS
polyreactivity (PSR sort gate): high polyreactivity

QVQLVESGGGLVQAGGSLRLSCAASGSIFPRNAMGWYRQAPGKERELVAAITTTGGITHYADSVKGRFTISRDNAKNTVYLQMNSLKPEDTAVYYCAASNEVPWRFPDDYWGQGTQVTVSA
polyreactivity (PSR sort gate): low polyreactivity

QVQLVESGGGLVQAGGSLRLSCAASGRTFKYYAMGWYRQAPGKERELVAGITGRGGGTYYADSVKGRFTISRDNAKNTVYLQMNSLKPEDTAVYYCAAERIYWKYYEYDYWGQGTEVTVSS
polyreactivity (PSR sort gate): high polyreactivity

QVQLVETGGGLVQAGVSLRISCAASGRTFSVYTMGWYRQAPGKERELVAAIRGRGGSTYYADSVKGRFTISRDNAKNTVYLQMNSLKPEDTAVYYCAARASIFGATFDYWGQGTQVTVSS
polyreactivity (PSR sort gate): high polyreactivity

QVQLVESGGGLVQAGGSLRLSCAASGSIFTAYALGWYRQAPGKERELVAAIDDSGDSTYYADSVKGRFTISRDNAKNTVYLQMHSLKPEDTAVNYCKAEYRVNKEYDYWGQGTQVTVSS
polyreactivity (PSR sort gate): low polyreactivity

QVQLVESWGGLVQAGGSLRLSCAASGRTLGRNAMGWYRQAPGKEREWVASISSGGSTNYADSVKGRFTISRDNAKNTVYLQMNSLKPEDTAVYYCNKRYRSLYSSGYDYWGQGTQVTVSS
polyreactivity (PSR sort gate): high polyreactivity

QVQLVESGGGLVQAGGSLRLSCAASGRTFYVNAMGWSRHAPGIERELVAGISFSDGSTYYADSVKWRFTISRDNAKSTVYLQMNSLKPEDTAVYYCATVGALDIYYGYGYWGQGTQVTVSS
polyreactivity (PSR sort gate): low polyreactivity

QVQLVESGGGLVQAGGSLRLSCAASGFTFSFYAMGRYRQAPGKEREYVAAITNSGGSTYYADSVKGRFTISRDNAKNTVYLQMNSLKPEDTGVYYCASKRAWPGYFTYYSWGQGTQVTVSS
polyreactivity (PSR sort gate): high polyreactivity

QVQLVESGGGLVQAGGSLRLSCAASGRTFYRNAMGWYRQARGKERELVAAISSRGGSTYYADSVKGRFTISRDNAKNTVYLQMNSLKPEDTAVYYCAARYLYLWADYEYGYWGQGTQVTVSS
polyreactivity (PSR sort gate): high polyreactivity

QVQLVESGGGLVQAGASLRVSCAASGISLKYAMVWYRQAPGKERELVASISSRGTSTYYADSVKGRFTISRDNAKNTVYLQMNCLIPEDTAVYYCAARVRWWSPGGYWGQGTQVSVSS
polyreactivity (PSR sort gate): high polyreactivity

QVQLVESGGGLVQAGGSLRLTCAASGRTFPLNVMGWYRQAPGKERELVAAITVSAGSTYYADSVKGRFTISRDNAKNTVYLQMNSLKPEDTAVYYCAKATSSFYHYRYDYWGQGTQVTVSS
polyreactivity (PSR sort gate): low polyreactivity

QVQLVESGGALVQAGGSLRLSCAASGSIFVPYTMGWYRQAPGKERELVSSISYSGGTTYYADSVKGRFTISRDYAKNTVYLQMNSLKPEDTAVYYCAADWDESYSYRRYSHYDYWGQGTQVTVSS
polyreactivity (PSR sort gate): low polyreactivity

QVQLVESGGGLVQAGGSLRLSCAASGRTFFKYVMGWYRQAPGKERELVAAISSGGSTNYADSVKGRFTISRDNAKNTVYLQMNSLKPEDTAVYYCATYDPARSTQGYDYWGQGTQVTVSS
polyreactivity (PSR sort gate): high polyreactivity

QVQLVESGGGLVQAGGSLRLSCAASGRIFESYAMGWYIQAPGKERELVAAISSGGGTTYYADSVKGLFTISRDNAKYSVYLQMNSLKPEDTAVYYCAADALSDEYDYWGQGTHVTVSS
polyreactivity (PSR sort gate): low polyreactivity

QVQLVESGGGLVHAGGSLRLSCAASGSIFNVYAMGWYRQAPGKERELVAAITQSGGSTYYADSVKGRFTISRDNAKNTVYLQMNSLKPEDTAVSYCAADNRYTYYYWGQCTQVTVSS
polyreactivity (PSR sort gate): low polyreactivity

QVQLVESGGGLVQAGGSLRLSCAASGITFTFNAMGWYRQAPGKERELVAAISSTTSTKYADSVKGRFTISRDNAKNTVYLQMNSLKPEDTAVYYCALTYLLRYYGYRDDEYDYWGQGTQVTVSS
polyreactivity (PSR sort gate): low polyreactivity

QVQRVDSGGGLVQAGGSLRLSCAASGITLLRYTMGWYRQAPGKERELLASITKRGGSTYYADSVKGRFTISRDNAKNTVYLQMNSLKPEDTAVYYCNADRHNSYYRKWDQLDMDYWGQGTQVTVSS
polyreactivity (PSR sort gate): high polyreactivity

QVQLVESGGGLVQAGGSLRLSCAAPGYIFEFYAMGWYRQAPGKERELVAAISWRGGSTYADSVKGRFTISRDNAKNTVYLQMNSLKPEDTAVYYCNADVEGRYDWTENDYWGQGTQVTVSS
polyreactivity (PSR sort gate): low polyreactivity

QVQLVESRGGLVQAGGSLRLSCAASGFSFAYYAMGWYTQAPGIERELVAGISAGYGSTYYADSVKGRFTISRDNAKNTVYLQMNSLKPEDTAVYYCAADTSSTSINGDIYDYEYWGQGTQVTVSS
polyreactivity (PSR sort gate): low polyreactivity

QVQLGESRRGLVQAGGSLRLSCAASGITFWYNATGWYRQSPGKERELDAAISRSAGSTYYADSVKGRFTISRDNAKNTVYLQMNSLKPEDTAVYYCAAKTPGRYYYWGQGTQVTVSS
polyreactivity (PSR sort gate): high polyreactivity

QVQLLESGGGLVQAGGSLRLTCAASGSTFPDYAMGWYRQAPGKEREFVASITWSDGSTYYADSVKGRFTISRDNAKNSVYLQMNRLKQEDTAVYYCNADYVYYYIPVVYEYDYWGQGTQVTVSS
polyreactivity (PSR sort gate): high polyreactivity

QVQLVESWGGLVQAGGSLRLSCPASGYIIQTYAMGWYRQAPGKEREFLAAMTSGAGRTSYADSVKGRFTISRDNAKNTVYLQLHRLKPEDTAVYFCAARWRYQLSGSRLSYGKYDYWGQGTQVTVSS
polyreactivity (PSR sort gate): high polyreactivity

QVQLVESGGGLVQAGGSLRLSCAASGSIFRIYAMGWYRHAPGKERELVAAITGRGGSTYYADSVKGRFTISRDNEKNTVYLQMNSLKPEDTAVYYCAAEERYAYRYDYWGQGTQVTVSS
polyreactivity (PSR sort gate): high polyreactivity

QVQLVESGGGLVQAGGSLRLSCAASGNILPSNAMGRYREAPGKEWELVAAITWSVGRTYYADSVKGRFTISRDNAKYTVYLQMNSLKPEDTAVYYCAADDYWDDVYYYVTGSTGYDYWGQGTQVTVSS
polyreactivity (PSR sort gate): low polyreactivity

QVQLVESGGGLVQAGGSLRLSSAASGSIFAYNDMGWYRQAPGKERELVAAITWSGDSTYYADSVKGRFTISRDNAKNTVYLQMNSLKPEDTAVYYCATDPLFKTSTRWKYDYWGQGTQVTVSS
polyreactivity (PSR sort gate): low polyreactivity

QVQLVESGGGLVQAGGSLRLSCAASGSIFGANVMGWYRQAPGKERELVAGITGSGGSTYADSVKGRFTISRDNAKNTVYFQMNSLKPEDTAVYYCNADTQFALVADFDYWGQGTQVTVSS
polyreactivity (PSR sort gate): low polyreactivity

HVQLVESGGGLVQAGGSLRLSCAASGRIFFRYAMGWYRQAPGKERELVAAISYSGGSTYYADSVKGRFTISRDNAKNTVYLQMNSLKPEDTAVYYCAAPLLRDLRSPYSYNYWGQGTQVTVSS
polyreactivity (PSR sort gate): low polyreactivity

QVHLVESGGGLVQAGGSLRLSCAASGIIFAYYAMGWYRQAPGKERELVAAISSTGSTHYADSVKGRFTISRDNAKNTVYLQMNSLKPEDTAVYYCNAYYYYRFKPSHPGLRSYYWGQGTQVTVSS
polyreactivity (PSR sort gate): high polyreactivity

QVQLVESGGGLVQAGGSLRLSCAASGITFSSYVMGWYRQAPGKERELVAAISRSGGITYYADSVKGRFTISRDNAKNTVYIQMNSLKPEDTAVYYCAATFPAGWSYANYYYWGQGTQVTVSS
polyreactivity (PSR sort gate): high polyreactivity
